Assay results published in patent publication US20190083615A1 (Merck Sharp & Dohme, published 2019).
Several values for one entry are separate records, joined by “and”; a condition that tells them apart may be missing. Identical values can stand only once.

T1: Human LAG3-His: [VEGF leader]-LAG3_H-[His9G] (human, UniProt P18627 23-450)
T1 construct: also called human LAG3-His tagged recombinant protein; hLAG3-His
T1 sequence: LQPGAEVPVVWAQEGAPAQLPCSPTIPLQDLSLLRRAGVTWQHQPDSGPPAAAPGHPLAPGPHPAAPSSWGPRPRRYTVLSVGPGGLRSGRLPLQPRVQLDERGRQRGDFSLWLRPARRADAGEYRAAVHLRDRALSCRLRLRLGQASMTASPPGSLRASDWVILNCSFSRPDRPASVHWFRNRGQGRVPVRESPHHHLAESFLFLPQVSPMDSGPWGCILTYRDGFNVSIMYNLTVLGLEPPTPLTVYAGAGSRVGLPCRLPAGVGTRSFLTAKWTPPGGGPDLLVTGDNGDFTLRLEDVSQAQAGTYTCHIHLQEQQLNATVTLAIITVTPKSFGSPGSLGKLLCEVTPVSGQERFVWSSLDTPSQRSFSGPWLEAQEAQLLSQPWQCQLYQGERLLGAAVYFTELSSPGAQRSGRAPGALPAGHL

T2: human LAG3 (Lymphocyte Activation Gene-3) expressed on cells (human, UniProt P18627 23-525)
T2 sequence: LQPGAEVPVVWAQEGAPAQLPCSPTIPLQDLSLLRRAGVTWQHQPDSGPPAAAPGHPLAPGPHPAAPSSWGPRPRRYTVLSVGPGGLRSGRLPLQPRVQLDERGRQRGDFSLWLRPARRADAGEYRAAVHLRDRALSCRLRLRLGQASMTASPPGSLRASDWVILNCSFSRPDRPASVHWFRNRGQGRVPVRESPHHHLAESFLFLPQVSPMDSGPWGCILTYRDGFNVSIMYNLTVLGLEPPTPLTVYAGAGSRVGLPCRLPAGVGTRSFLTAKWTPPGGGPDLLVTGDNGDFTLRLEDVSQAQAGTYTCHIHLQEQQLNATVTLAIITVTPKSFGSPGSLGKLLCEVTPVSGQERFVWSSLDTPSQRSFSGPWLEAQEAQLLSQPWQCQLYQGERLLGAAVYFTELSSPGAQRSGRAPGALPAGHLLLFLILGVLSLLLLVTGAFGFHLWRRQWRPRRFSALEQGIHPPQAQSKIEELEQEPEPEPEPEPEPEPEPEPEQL

T3: human LAG3-huFc recombinant protein (human, UniProt P18627 23-450, limits assumed, biotinylated in the runs with humanized and chimeric antibodies (Example 11))
T3 construct: also called human LAG3-Fc; huLAG3-huFc; not shown: human Fc
T3 sequence: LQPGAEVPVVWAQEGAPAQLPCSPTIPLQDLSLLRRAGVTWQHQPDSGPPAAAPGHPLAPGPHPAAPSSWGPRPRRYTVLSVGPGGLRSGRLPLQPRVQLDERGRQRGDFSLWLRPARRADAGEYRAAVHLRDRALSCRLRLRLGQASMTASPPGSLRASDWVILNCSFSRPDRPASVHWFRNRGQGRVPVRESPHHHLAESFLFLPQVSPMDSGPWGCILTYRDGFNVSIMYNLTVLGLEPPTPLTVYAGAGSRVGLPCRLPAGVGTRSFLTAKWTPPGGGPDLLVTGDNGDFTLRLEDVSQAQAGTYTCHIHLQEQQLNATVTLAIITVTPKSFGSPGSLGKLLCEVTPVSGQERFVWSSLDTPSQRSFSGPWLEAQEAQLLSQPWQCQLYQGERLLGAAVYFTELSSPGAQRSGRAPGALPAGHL


Experiments:
[1] = molecular target: T1, Human LAG3-His: [VEGF …; test: SPR (Biacore T200), antibody captured on goat anti-mouse Fc, human LAG3-His as analyte, 1:1 Langmuir fit
Description: Mouse anti-human LAG3 clones listed above were injected over the immobilized goat anti-mouse surfaces at 1 ug/mL for a capture level of 40 RU. HBS-EP+ buffer (BR-1006-69) was used as the running buffer with a flow rate of 30 μL/min.
Varying concentrations of human LAG3-His protein ranging from 0.15 nM to 18.8 nM, at a flow rate of 40 μL/min were injected over the antibody surfaces.
Background subtraction binding sensorgrams were used for analyzing the rate constant of association (kₐ) and dissociation (kd), and the equilibrium dissociation constant KD. The resulting data sets were fitted with a 1:1 Langmuir Binding Model using the Biacore T200 evaluation software (version 2.0).

[2] = molecular target: T2, human LAG3 (Lymphocyte Activation …); test: cell-based or functional assay
[3] = molecular target: T3, human LAG3-huFc recombinant protein; test: flow cytometry, blockade of human LAG3-huFc (2 ug/ml) binding to MHC class II on Daudi cells
Description: (§1) Mouse anti-human LAG3 clones were tested for their ability to block hLAG3 interaction with human MHC Class II. Daudi cells (ATCC #CCL-213) were used as a cell line positive for human MHC class II expression. Daudi cells were blocked with 10 ug/ml of goat IgG in HBSS and 2% BCS on ice for 30 minutes and 0.5×10⁶ cells/sample were aliquoted into a 96-well V-bottom plate and blocking buffer removed. […] Cells were pelleted by centrifugation at 1200 rpm and washed twice with HBSS/2% BCS. […] Cells were washed twice as described above, resuspended in HBSS/2% BCS and read on the FACSCalibur.

[4] = molecular target: T3, human LAG3-huFc recombinant protein; test: flow cytometry, blockade of human LAG3-huFc binding to MHC class II on Daudi cells
Description: as §1

[5] = molecular target: T3, human LAG3-huFc recombinant protein; test: flow cytometry, blockade of biotinylated human LAG3-huFc binding to MHC class II on Daudi cells, streptavidin-PE
Description: as §1, with “anti-human LAG3 and humanized anti-LAG3 clones were” for “anti-human LAG3 clones were”

[6] = molecular target: T2, human LAG3 (Lymphocyte Activation …); test: cell based KinExA, BaF/3 cells transfected with human LAG3 (n=2)
Description: The affinities of the LAG3 antibodies for LAG3 were determined using a cell based Kinetic Exclusion Assay (KinExA). Cell based KinExA can be used to measure the affinity of a molecule for a binding partner on a cell surface (Rathanaswami et al. Analylitical Biochemistry 373(1): 52-60 (2008); Xie et al. J. Immunol. Methods 304 (1-2): 1-14 (2005)). In this case, BaF/3 cells were stably transfected with human and cynomolgus monkey LAG3 proteins. Transfected cells or the parental BaF/3 control cell line were grown to a density of 1.7×10⁶ to 3.2×10⁶ cells per ml at 37° C., 120 RPM, 5% CO₂, in 1X RPMI 1640 media with 10% FBS, 10 ng/ml IL-3, 5 μg/ml puromycin. Cells were concentrated, mixed with 15 pM or 150 pM antibody in cell culture media and incubated 24 to 48 hours at room temperature while rotating at 20 to 30 RPM. Cells were present at a top concentration of 2×10⁷ cells per ml (parental BaF/3 or cynomolgus LAG3 transfectants) or 1×10⁷ cells per ml (human LAG3 transfectants) and diluted in a 2-fold, 18 member series. The cells were pelleted and free antibody in the supernatant was measured using a KinExA 3200 instrument (Sapidyne, Id., USA). […] Antibody on the beads was labeled with 1.5 μg/ml Alexa Fluor® 647 conjugated goat anti-human (Fab′)₂ (Jackson ImmunoResearch Laboratories), washed and the fluorescent signal was read all using the KinExA™ 3200. The data from the 15 pM and 150 pM concentrations of each antibody were fit simultaneously using KinExA™ Pro n-Curve Analysis software version 4.0.11 (Sapidyne).

[7] = molecular target: T2, human LAG3 (Lymphocyte Activation …); test: flow cytometry, PHA-activated human CD4+ T cells (3 donors)
Description: (§2) Binding of LAG-3 mAb clones to primary T-cells was assessed using human and cynomolgous monkey (cyno) peripheral blood mononuclear cells (PBMC). Human blood was obtained from the local donors; cyno blood was obtained from Bioreclamation. PBMC were isolated from the whole blood using Ficoll-Paque Plus (GE Healthcare, Cat# 17-1440-03) density gradient centrifugation at 524×g for 40 minutes. PBMC were collected from the medium:plasma interface and washed 2 times with phosphate buffered saline (PBS). The residual red blood cells were lysed using ammonium-chloride-potassium red blood cell lysing solution (ACK, GIBCO, cat# A10492-010). Cynomolgus monkey or human PBMC (3×10⁶/ml) were stimulated with 4 μg/ml PHA (Sigma, L2769) for 48 h and 20 h, respectively. For flow cytometric analysis, 1×10⁶ PHA-activated PBMCs were used per staining in 50 μl FACS staining buffer (BD, cat# 554657). LAG-3 mAb clones or correspondent isotype controls were incubated with human or cyno PBMS followed by detection using goat anti-mouse IgG-PE (BD 550589). […] Sample acquisition was performed on an LSR II flow cytometer and the data were analyzed using FlowJo software version 10.0.6 (Tree Star, Inc.).
(§3) The data represent 3 human and 3 cynomolgus donors after stimulation with 4 ug/ml of PHA for 40 hours prior to staining.

[8] = molecular target: T2, human LAG3 (Lymphocyte Activation …); test: flow cytometry, PHA-activated human CD8+ T cells (3 donors)
Description: as §2, §3

Row | Binder | Kd [1] [nM] | koff [1] [s⁻¹] | kon [1] [M⁻¹ s⁻¹] | EC50 for IL-2 rescue, hLAG3-3A9 T cell system [2] | IC50 [3] [nM] | IC50 [4] [nM] | IC50 [5] [nM] | Kd [6] [nM] | EC50 [7] [nM] | EC50 [8] [nM]
1 | mouse anti-human LAG3 antibody LB148.11C9.1C1 (antibody, mouse IgG1, V domains shown, also called Lag3 clone 11C9) VH: QVQLQQPGAELVMPGASAKMSCKASGYTLTDYWMHWVKQRPGQGLEWIGAIDISDSYSSYNQKFKGKATLTVDESSSTAYMQLTSLTSEDSAVYYCARSPFYNSRGGNYFDYWGQGTTLTVSS VL: DIQMTQTTSSLSASLGDRVTISCRASQDISNYLNWYQQKPDGTVKLLIYYTSRLHSGVPSRFSGSGSGTDYSLTISNLEQEDIATYFCQQGDTLPPWTFGGGTKLEIK | 1.47 | 0.00192 | 1.31e+06 | 3.56 nM and 4.06 nM | 2 | 2 |  |  |  | 
2 | mouse anti-human LAG3 antibody LB148.19E8.G1.1A1 (antibody, mouse IgG2b, V domains shown, also called Lag3 clone 19E8) VH: QIRLQQSGPELVKPGASVKISCKASGSSFTDYYINWVKQKPGQGLEWIGWIYPGSGNSIYNENFKAKATLTVDTSSSTAYMHLSSLTSEDTAVYFCAREADYDDALDYWGQGTSVTVSS VL: HILLTQSPAILSVSPGERVSFSCRASQSIGTSIHWYQQRTNGSPRLLIKYASESISGIPSRFSGSGSGTDFTLSINSVESEDIADYYCQQSNSWPTYTFGGGTKLEIK | 0.0147 | 0.000109 | 7.43e+06 | 1.74 nM and 1.83 nM | 2.8 | 2.8 |  |  |  | 
3 | Ab5: humanized light chain 45AGX Humanized x[LAG3_H] mAb (LB145.22D2.E1.D1 (VL3)) Kappa (PX) and humanized heavy chain 57AHH Humanized x[LAG3_H] mAb … (antibody, Humanized 22D2, IgG4 S228P/kappa; also called Hu22D2 VH6/VL3 (Ab 5); hu22D2 VH6/VL3) heavy: not shown light: DIVMTQTPLSLSVTPGQPASISCKASQSLDYEGDSDMNWYLQKPGQPPQLLIYGASNLESGVPDRFSGSGSGTDFTLKISRVEAEDVGVYYCQQSTEDPRTFGGGTKVEIKRTVAAPSVFIFPPSDEQLKSGTASVVCLLNNFYPREAKVQWKVDNALQSGNSQESVTEQDSKDSTYSLSSTLTLSKADYEKHKVYACEVTHQGLSSPVTKSFNRGEC |  |  |  |  |  |  | 2.6 | 0.006 |  | 
4 | Ab7: humanized light chain 45AGX Humanized x[LAG3_H] mAb (LB145.22D2.E1.D1 (VL3)) Kappa (PX) and humanized heavy chain 21AHG Humanized x[LAG3_H] mAb … (antibody, Humanized 22D2 N55S, IgG4 S228P/kappa; also called Hu22D2 VH6/VL3 N55S (Ab 7); hu22D2 VH6/VL3 N55S) heavy: not shown light: DIVMTQTPLSLSVTPGQPASISCKASQSLDYEGDSDMNWYLQKPGQPPQLLIYGASNLESGVPDRFSGSGSGTDFTLKISRVEAEDVGVYYCQQSTEDPRTFGGGTKVEIKRTVAAPSVFIFPPSDEQLKSGTASVVCLLNNFYPREAKVQWKVDNALQSGNSQESVTEQDSKDSTYSLSSTLTLSKADYEKHKVYACEVTHQGLSSPVTKSFNRGEC |  |  |  |  |  |  | 2.1 | 0.01 | 0.057 | 0.049
